Reference: US20240092841A1

Key:
Assay in all cases: co-IP with agarose-bound AvFc from H460 whole-cell lysate, mass spectrometry
[1] = target: Sortilin-related receptor (human) (UniProt Q92673)
[2] = target: Laminin subunit beta-1 (human) (UniProt P07942)
[3] = target: Insulin-like growth factor 1 receptor (human) (UniProt P08069)
[4] = target: Niemann-Pick C1 protein (human) (UniProt O15118)
[5] = target: Neutral amino acid transporter B (0) (human) (UniProt Q15758)
[6] = target: Neural cell adhesion molecule L1 (human) (UniProt P32004)
[7] = target: Urokinase plasminogen activator surface receptor (human) (UniProt Q03405)
[8] = target: Renin receptor (human) (UniProt O75787)
[9] = target: Scavenger receptor class A member 5 (human) (UniProt Q6ZMJ2)
[10] = target: Epidermal growth factor receptor (human) (UniProt P00533)
[11] = target: Cell cycle control protein 50A (human) (UniProt Q9NV96)
[12] = target: Solute carrier family 2, facilitated glucose transporter member 1 (human) (UniProt P11166)
UniProt P11166, sequence (P11166 whole entry): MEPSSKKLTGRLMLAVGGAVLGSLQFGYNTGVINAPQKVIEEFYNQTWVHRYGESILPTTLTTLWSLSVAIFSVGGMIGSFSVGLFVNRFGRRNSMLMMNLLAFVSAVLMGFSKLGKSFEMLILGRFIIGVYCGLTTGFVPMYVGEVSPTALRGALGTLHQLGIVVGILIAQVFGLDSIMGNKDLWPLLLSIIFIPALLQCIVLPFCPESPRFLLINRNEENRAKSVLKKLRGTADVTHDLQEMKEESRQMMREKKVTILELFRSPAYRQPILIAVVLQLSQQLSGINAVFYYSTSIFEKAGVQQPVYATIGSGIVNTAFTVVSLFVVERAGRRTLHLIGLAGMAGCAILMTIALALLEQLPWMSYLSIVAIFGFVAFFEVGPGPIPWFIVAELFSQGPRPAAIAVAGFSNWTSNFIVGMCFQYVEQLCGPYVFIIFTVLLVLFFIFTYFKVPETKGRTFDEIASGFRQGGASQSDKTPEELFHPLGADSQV

[13] = target: Plexin-B2 (human) (UniProt O15031)
[14] = target: Laminin subunit gamma-1 (human) (UniProt P11047)
[15] = target: Endothelial protein C receptor (human) (UniProt Q9UNN8)
[16] = target: Scavenger receptor class B member 1 (human) (UniProt Q8WTV0)
[17] = target: Attractin (O75882-2) (human) (UniProt O75882)
[18] = target: Contactin-associated protein 1 (human) (UniProt P78357)
[19] = target: Laminin subunit alpha-1 (human) (UniProt P25391)
[20] = target: Myoferlin (Q9NZM1-2) (human) (UniProt Q9NZM1)
[21] = target: ATP-binding cassette sub-family A member 2 (human) (UniProt Q9BZC7)
UniProt Q9BZC7, sequence (Q9BZC7 other isoform, or with tags, fused parts or gaps limits assumed): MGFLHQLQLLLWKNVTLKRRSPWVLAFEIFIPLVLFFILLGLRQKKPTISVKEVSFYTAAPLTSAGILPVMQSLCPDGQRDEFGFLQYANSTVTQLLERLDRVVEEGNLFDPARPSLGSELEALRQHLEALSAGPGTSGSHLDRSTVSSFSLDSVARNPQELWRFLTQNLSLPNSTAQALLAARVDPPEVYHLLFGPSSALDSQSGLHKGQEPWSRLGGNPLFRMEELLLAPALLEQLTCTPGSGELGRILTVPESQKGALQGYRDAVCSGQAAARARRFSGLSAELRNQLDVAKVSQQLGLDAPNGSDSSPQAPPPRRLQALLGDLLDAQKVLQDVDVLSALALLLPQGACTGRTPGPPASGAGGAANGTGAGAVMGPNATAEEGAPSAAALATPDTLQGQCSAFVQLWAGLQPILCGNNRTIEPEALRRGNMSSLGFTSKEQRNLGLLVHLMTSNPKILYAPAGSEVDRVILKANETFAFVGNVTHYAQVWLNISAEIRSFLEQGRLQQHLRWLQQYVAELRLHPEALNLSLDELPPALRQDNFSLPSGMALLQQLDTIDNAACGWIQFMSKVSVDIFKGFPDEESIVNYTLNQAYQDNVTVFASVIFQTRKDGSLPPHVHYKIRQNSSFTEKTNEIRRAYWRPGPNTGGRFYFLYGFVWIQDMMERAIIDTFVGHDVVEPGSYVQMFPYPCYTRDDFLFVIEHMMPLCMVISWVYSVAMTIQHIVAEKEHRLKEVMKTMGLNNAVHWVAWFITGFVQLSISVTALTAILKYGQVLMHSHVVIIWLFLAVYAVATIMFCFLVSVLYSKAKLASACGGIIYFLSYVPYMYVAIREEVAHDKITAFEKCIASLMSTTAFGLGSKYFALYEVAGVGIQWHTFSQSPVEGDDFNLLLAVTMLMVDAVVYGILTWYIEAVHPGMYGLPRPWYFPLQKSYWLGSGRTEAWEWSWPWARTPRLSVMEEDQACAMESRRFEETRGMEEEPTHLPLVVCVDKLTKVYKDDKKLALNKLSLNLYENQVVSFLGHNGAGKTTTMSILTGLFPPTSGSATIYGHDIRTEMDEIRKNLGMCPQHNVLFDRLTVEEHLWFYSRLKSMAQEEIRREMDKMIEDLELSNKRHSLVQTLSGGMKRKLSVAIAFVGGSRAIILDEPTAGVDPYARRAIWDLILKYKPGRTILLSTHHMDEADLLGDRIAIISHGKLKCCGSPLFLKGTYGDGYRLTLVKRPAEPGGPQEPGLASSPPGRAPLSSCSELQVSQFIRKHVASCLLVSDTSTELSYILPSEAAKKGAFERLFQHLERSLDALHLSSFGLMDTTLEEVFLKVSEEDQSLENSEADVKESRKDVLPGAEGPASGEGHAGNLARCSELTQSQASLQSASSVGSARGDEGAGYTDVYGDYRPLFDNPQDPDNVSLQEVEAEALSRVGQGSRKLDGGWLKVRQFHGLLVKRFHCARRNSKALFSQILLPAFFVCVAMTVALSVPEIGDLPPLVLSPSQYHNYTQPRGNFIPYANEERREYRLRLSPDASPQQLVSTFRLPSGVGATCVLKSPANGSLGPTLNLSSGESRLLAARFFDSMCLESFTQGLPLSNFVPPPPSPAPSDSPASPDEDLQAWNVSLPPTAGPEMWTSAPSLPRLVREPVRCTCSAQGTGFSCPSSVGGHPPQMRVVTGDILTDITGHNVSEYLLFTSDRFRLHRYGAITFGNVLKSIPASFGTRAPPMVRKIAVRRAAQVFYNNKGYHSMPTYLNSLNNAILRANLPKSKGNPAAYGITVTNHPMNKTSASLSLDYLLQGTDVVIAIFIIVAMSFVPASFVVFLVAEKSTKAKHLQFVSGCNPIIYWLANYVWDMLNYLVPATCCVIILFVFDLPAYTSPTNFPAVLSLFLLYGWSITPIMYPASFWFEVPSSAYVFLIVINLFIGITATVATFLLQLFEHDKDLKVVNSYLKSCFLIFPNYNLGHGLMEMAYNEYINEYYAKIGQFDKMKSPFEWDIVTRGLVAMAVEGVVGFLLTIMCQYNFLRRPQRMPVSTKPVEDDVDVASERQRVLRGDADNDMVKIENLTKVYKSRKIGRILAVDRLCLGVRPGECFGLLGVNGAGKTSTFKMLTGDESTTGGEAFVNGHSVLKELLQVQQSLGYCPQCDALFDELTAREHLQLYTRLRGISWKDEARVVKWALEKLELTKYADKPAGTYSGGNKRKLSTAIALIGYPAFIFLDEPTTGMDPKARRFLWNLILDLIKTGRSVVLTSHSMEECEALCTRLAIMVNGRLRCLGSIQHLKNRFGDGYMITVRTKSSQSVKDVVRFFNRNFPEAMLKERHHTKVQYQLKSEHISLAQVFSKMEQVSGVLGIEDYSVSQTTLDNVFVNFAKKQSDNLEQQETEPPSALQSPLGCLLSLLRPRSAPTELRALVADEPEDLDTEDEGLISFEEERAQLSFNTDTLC

[22] = target: CD109 antigen (Q6YHK3-4) (human) (UniProt Q6YHK3)
[23] = target: Transferrin receptor protein 1 (human) (UniProt P02786)
[24] = target: Integrin alpha-5 (human) (UniProt P08648)
[25] = target: 4F2 cell-surface antigen heavy chain (human) (UniProt P08195)
[26] = target: Protocadherin Fat 1 (human) (UniProt Q14517)
[27] = target: Cation-dependent mannose-6-phosphate receptor (human) (UniProt P20645)
[28] = target: Cation-independent mannose-6-phosphate receptor (human) (UniProt P11717)
[29] = target: Integrin alpha-2 (human) (UniProt P17301)
[30] = target: Metal transporter CNNM4 (human) (UniProt Q6P4Q7)
[31] = target: Galectin-3-binding protein (human) (UniProt Q08380)
[32] = target: Fibronectin (human) (UniProt P02751)
[33] = target: Agrin (human) (UniProt O00468)
[34] = target: Transmembrane protein 106B (human) (UniProt Q9NUM4)
UniProt Q9NUM4, sequence (Q9NUM4 2-274 limits assumed): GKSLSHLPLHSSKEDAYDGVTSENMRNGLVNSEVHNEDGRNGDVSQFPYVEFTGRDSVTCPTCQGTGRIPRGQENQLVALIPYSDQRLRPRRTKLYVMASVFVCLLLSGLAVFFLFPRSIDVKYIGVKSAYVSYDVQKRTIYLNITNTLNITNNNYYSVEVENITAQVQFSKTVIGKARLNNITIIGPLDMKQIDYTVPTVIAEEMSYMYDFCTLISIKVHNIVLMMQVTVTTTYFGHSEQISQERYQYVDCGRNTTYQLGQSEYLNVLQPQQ

[35] = target: Magnesium transporter protein 1 (human) (UniProt Q9H0U3)
[36] = target: Solute carrier family 12 member 7 (human) (UniProt Q9Y666)
[37] = target: Synaptonemal complex protein SC65 (human) (UniProt Q92791)
[38] = target: Tetratricopeptide repeat protein 13 (Q8NBP0-2) (human) (UniProt Q8NBP0)

UniProt P07942, sequence (P07942 22-1786 limits assumed): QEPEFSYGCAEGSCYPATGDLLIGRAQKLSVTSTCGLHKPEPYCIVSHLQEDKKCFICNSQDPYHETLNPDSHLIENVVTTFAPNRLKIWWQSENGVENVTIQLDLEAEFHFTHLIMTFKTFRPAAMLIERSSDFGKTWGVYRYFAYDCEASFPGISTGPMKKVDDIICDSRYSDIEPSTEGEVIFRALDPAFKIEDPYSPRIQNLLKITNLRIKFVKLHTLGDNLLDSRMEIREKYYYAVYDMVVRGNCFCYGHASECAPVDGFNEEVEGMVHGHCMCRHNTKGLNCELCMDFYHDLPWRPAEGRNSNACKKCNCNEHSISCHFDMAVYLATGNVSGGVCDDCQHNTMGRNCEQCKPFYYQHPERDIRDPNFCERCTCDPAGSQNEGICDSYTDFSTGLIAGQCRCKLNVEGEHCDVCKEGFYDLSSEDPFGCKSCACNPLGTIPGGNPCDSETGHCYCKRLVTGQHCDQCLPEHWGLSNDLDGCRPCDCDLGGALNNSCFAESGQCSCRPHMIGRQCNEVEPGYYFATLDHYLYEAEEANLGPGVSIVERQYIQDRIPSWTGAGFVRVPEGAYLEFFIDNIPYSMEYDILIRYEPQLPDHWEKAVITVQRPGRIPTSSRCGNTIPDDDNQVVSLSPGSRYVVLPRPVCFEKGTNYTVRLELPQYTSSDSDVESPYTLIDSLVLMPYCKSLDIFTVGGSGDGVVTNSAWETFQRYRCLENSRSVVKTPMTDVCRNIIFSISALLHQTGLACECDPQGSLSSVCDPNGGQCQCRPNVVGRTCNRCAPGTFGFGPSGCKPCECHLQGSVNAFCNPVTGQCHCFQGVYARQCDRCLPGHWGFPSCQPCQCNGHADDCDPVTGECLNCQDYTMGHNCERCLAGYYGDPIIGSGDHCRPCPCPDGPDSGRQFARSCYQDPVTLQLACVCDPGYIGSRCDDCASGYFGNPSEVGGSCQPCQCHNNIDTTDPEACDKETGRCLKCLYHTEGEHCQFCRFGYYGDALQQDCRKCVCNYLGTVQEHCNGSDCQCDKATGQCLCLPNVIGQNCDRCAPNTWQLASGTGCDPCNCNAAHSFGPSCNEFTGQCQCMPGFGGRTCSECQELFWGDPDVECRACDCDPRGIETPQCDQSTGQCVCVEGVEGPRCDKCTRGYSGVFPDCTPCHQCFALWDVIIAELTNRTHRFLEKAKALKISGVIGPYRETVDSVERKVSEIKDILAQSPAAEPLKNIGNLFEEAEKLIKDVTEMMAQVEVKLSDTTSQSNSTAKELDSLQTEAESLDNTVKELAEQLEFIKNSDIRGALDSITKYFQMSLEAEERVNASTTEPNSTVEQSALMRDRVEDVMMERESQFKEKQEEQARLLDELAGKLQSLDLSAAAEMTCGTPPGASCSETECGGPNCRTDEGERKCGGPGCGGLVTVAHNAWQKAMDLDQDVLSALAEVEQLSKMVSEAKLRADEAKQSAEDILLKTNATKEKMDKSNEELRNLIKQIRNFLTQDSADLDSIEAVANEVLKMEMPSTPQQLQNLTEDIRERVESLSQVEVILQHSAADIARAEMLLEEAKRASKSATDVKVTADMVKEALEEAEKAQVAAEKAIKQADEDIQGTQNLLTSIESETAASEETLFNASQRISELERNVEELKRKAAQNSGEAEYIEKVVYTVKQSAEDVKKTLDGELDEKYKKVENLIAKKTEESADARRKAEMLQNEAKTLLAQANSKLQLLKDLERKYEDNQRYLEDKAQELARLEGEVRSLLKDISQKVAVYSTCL

Avaren-Fc (AvFc) (Fc fusion)
Percentage of Total Spectra (%) [1]: 0.058% | Percentage of Total Spectra (%) [2]: 0.31% | Percentage of Total Spectra (%) [3]: 0.033% | Percentage of Total Spectra (%) [4]: 0.066% | Percentage of Total Spectra (%) [5]: 0.05% | Percentage of Total Spectra (%) [6]: 0.099% | Percentage of Total Spectra (%) [7]: 0.066% | Percentage of Total Spectra (%) [8]: 0.066% | Percentage of Total Spectra (%) [9]: 0.099% | Percentage of Total Spectra (%) [10]: 0.058% | Percentage of Total Spectra (%) [11]: 0.033% | Percentage of Total Spectra (%) [12]: 0.033% | Percentage of Total Spectra (%) [13]: 0.13% | Percentage of Total Spectra (%) [14]: 0.83% | Percentage of Total Spectra (%) [15]: 0.033% | Percentage of Total Spectra (%) [16]: 0.15% | Percentage of Total Spectra (%) [17]: 0.058% | Percentage of Total Spectra (%) [18]: 0.13% | Percentage of Total Spectra (%) [19]: 0.35% | Percentage of Total Spectra (%) [20]: 0.11% | Percentage of Total Spectra (%) [21]: 0.21% | Percentage of Total Spectra (%) [22]: 0.13% | Percentage of Total Spectra (%) [23]: 0.21% | Percentage of Total Spectra (%) [24]: 0.041% | Percentage of Total Spectra (%) [25]: 0.091% | Percentage of Total Spectra (%) [26]: 0.058% | Percentage of Total Spectra (%) [27]: 0.025% | Percentage of Total Spectra (%) [28]: 0.44% | Percentage of Total Spectra (%) [29]: 0.0083% | Percentage of Total Spectra (%) [30]: 0.083% | Percentage of Total Spectra (%) [31]: 0.17% | Percentage of Total Spectra (%) [32]: 0.21% | Percentage of Total Spectra (%) [33]: 0.15% | Percentage of Total Spectra (%) [34]: 0.11% | Percentage of Total Spectra (%) [35]: 0.017% | Percentage of Total Spectra (%) [36]: 0.0083% | Percentage of Total Spectra (%) [37]: 0.066% | Percentage of Total Spectra (%) [38]: 0.11%
